This note sets out measurements from patent publication EP1230350B1, “SITE-DIRECTED MUTAGENESIS OF ESCHERICHIA COLI PHYTASE” (CORNELL RESEARCH FOUNDATION, INC., priority 1999, dated 2001).

Where a chain is given by its changes, count along the chain named. Names and notes keep the numbering of the source. Marks after values point to notes of the source that are not given here.

What all share (test): Enzyme kinetics of acid phosphatase/phytase (pNPP and sodium phytate as substrates)
Data set [1] addresses T1, Escherichia coli acid phosphatase/phytase (appA) Mutant U (construct E2P2P3K2: C200N, D207N, S211N), SEQ. ID. No. 3, expressed in Pichia pastoris (Escherichia coli, UniProt P07102, C200N/D207N/S211N).
T1 construct: The coding region starts at the codon 20 and ends at the codon 432; alpha-factor secretion leader of vector pPICZαA (own knowledge of the vector); made in house; host or cells: Pichia pastoris X33
T1 sequence (P07102 20-432 C200N/D207N/S211N): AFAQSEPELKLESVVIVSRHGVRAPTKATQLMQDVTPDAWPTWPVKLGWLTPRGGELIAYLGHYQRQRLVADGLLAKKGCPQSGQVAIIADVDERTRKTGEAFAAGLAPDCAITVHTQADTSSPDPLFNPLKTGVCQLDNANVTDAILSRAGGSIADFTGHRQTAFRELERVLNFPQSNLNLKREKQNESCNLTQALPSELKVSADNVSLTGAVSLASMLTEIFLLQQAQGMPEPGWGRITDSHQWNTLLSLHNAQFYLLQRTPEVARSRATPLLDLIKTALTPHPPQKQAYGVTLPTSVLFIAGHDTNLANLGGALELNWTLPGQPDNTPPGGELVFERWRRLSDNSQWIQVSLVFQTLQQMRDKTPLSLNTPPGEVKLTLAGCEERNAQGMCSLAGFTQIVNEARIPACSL
It counts as biochemical. How it is done:
The expressed r-AppA and mutant enzymes in the medium supernatant were subjected to a two-step ammonium sulfate precipitation (25% and 75%) as previously described (Rodriguez, E. et al., Biochem. Biophys. Res. Commun. 257:117-23 (1999)). The suspension of the first round was centrifuged at 4°C, 25,000 x g for 20 min. The pellet of the second round was suspended in 10 ml and dialyzed overnight against 25 mM Tris-HCl, pH 7. After dialysis, the protein extract was loaded onto a DEAE (diethylaminoethyl)-Sepharose column (Sigma, St. Louis, MO) equilibrated with 25 mM Tris-HCl, pH 7. The bound protein was eluted with 1 M NaCl in 25 mM Tris-CH1, pH 7. […] Phytase activity was measured using sodium phytate as the substrate (Rodriguez, E. et al., Biochem. Biophys. Res. Commun. 257:117-23 (1999); Piddington, C.S. et al., Gene 133:55-62 (1993)). […] Free inorganic phosphorus was measured at 820 nm after 0.2 ml of the sample was mixed with 1.8 ml of H2O and 2 ml of a solution containing 0.6 M H2SO4, 2% ascorbic acid, and 0.5% ammonium molybdate, followed by incubation for 20 min at 50°C. […] The released p-nitrophenol was measured at 405 nm after 0.1 ml of the sample was mixed with 0.9 ml of 1 M NaOH and incubated for 10 min. […] After the samples were cooled on ice for 30 min, their remaining phytase activies were measured as described above. […]

Substrate in data set [2]: O=[N+]([O-])c1ccc(OP(=O)(O)O)cc1
In kind it is biochemical, Escherichia coli. To be noted: 0.25 M glycine-HCl, pH 2.5, 37°C, Lineweaver-Burk plot. The procedure:
(§1) The expressed r-AppA and mutant enzymes in the medium supernatant were subjected to a two-step ammonium sulfate precipitation (25% and 75%) as previously described (Rodriguez, E. et al., Biochem. Biophys. Res. Commun. 257:117-23 (1999)). The suspension of the first round was centrifuged at 4°C, 25,000 x g for 20 min. The pellet of the second round was suspended in 10 ml and dialyzed overnight against 25 mM Tris-HCl, pH 7. After dialysis, the protein extract was loaded onto a DEAE (diethylaminoethyl)-Sepharose column (Sigma, St. Louis, MO) equilibrated with 25 mM Tris-HCl, pH 7. The bound protein was eluted with 1 M NaCl in 25 mM Tris-CH1, pH 7. […] Phytase activity was measured using sodium phytate as the substrate (Rodriguez, E. et al., Biochem. Biophys. Res. Commun. 257:117-23 (1999); Piddington, C.S. et al., Gene 133:55-62 (1993)). The enzyme was diluted in 0.25 M glycine-HCl, pH 2.5, and an equal volume of substrate solution containing 11 mM sodium phytate (Sigma) was added. After incubation of the sample for 15 min at 37°C, the reaction was stopped by addition of an equal volume of 15% trichloroacetic acid. Free inorganic phosphorus was measured at 820 nm after 0.2 ml of the sample was mixed with 1.8 ml of H2O and 2 ml of a solution containing 0.6 M H2SO4, 2% ascorbic acid, and 0.5% ammonium molybdate, followed by incubation for 20 min at 50°C. One phytase unit was defined as the amount of activity that releases 1 µmol of inorganic phosphorus from sodium phytate per minute at 37°C. The final concentrations of sodium phytate used for the enzyme kinetics were: 0.1, 0.25, 0.5, 0.75, 1, 2.5, 10, and 25 mM. Acid phosphatase activity was assayed using pNPP (Sigma) at a final concentration of 25 mM (Smith, R. et al., Protein Engineerine 5:35-41 (1992)). To 50 µl of enzyme (40 nmol), 850 µl of 250 mM glycine-HCl, pH 2.5, were added. After 5 min of incubation at 37°C, 100 µl of pNPP was added. The released p-nitrophenol was measured at 405 nm after 0.1 ml of the sample was mixed with 0.9 ml of 1 M NaOH and incubated for 10 min. The final concentrations ofpNPP used for the enzyme kinetics were: 0.1, 0.2, 0.75, 1, 2.5, 10, and 25 mM. One unit of acid phosphatase/phytase activity was defined as the amount of enzyme catalyzing the formation of 1 µmol of p-nitrophenol per minute. Before the thermostability assay, the enzyme (2 mg/ml) was diluted 1:400 in 0.2 M glycine-HCl, pH 2.5. The diluted samples were incubated for 15 min at 25, 55, 80, and 90°C. After the samples were cooled on ice for 30 min, their remaining phytase activies were measured as described above. Deglycosylation of purified enzymes was done by incubating 100 µg of total protein with 0.5 IU endoglycosidase Hf (Endo Hf) for 4 h at 37°C according to the manufacturer's instructions (New England Biolabs, Beverly, MA). Sodium dodecyl sulfate-polyacrylamide gel electrophoresis (SDS-PAGE), 15% (w/v) gel was performed as previously described (Laenunli, U.K., Nature 227:680-85 (1970)). Protein concentrations were determined using the Lowry method (Lowry, O.H. et al., J. Biol. Chem. 193:265-75 (1951)).
(§2) The Km value for pNPP (p-nitrophenyl phosphate) was reduced by one-half and the one for sodium phytate by 70% with Mutant U, versus r-AppA (P < 0.05) (Table 4).

Substrate in data set [3]: O=P(O)(O)OC1C(OP(=O)(O)O)C(OP(=O)(O)O)C(OP(=O)(O)O)C(OP(=O)(O)O)C1OP(=O)(O)O
In kind it is biochemical, Escherichia coli. To be noted: 0.25 M glycine-HCl, pH 2.5, 37°C, Lineweaver-Burk plot. How it is done: as §1, §2

As for `O=P(O)(O)O[C@H]1[C@H](OP(=O)(O)O)[C@@H](OP(=O)(O)O)[C@H](OP(=O)(O)O)[C@@H](OP(=O)(O)O)[C@H]1OP(=O)(O)O` [Na-Phytate, sodium phytate], the “increase in apparent catalytic efficiency kcat/Km for sodium phytate than that of r-AppA” value in data set [1] (Mutant U versus r-AppA) was found to be 5.2 fold. The “Km value for sodium phytate reduced, versus r-AppA” value in data set [1] (Mutant U versus r-AppA (P < 0.05)) stood at 70%.

B1: Escherichia coli acid phosphatase/phytase (appA) Mutant Y (construct E2A1P2P3K2: A131N, V134N, C200N, D207N, S211N), expressed in Pichia pastoris (Escherichia … (protein)
chain: T1 sequence (P07102 20-432 C200N/D207N/S211N) with A112N, V115N
notes: The coding region starts at the codon 20 and ends at the codon 432; alpha-factor secretion leader of vector pPICZαA (own knowledge of the vector); made in house; host or cells: Pichia pastoris X33
For B1, in data set [2] (other: Mutant Y), the Km amounted to 3180 ± 390 µM, the kcat came out at 787 ± 6.7 min⁻¹ and the kcat/Km entry is on record as “(2.5 ± 0.17) x 10^5 min^-1 M^-1”. Also, in data set [3] (other: Mutant Y), the Km was found to be 2030 ± 190 µM, the catalytic constant (kcat) is 3431 ± 41^* min^-1 and the kcat/Km result was “(1.69 ± 0.21) x 10^6* min^-1 M^-1”.

B2: Escherichia coli acid phosphatase/phytase (appA) Mutant U (construct E2P2P3K2: C200N, D207N, S211N), SEQ. ID. No. 3, expressed in Pichia pastoris (Escherichia … (protein)
chain: T1 sequence (P07102 20-432 C200N/D207N/S211N)
notes: as for B1
As for B2, in data set [2] (other: Mutant U), the Michaelis-Menten constant (Km) was found to be 1860 ± 35000 µM, the kcat was 1073 ± 13^* min^-1 and the kcat/Km entry is recorded as “(5.8 ± 0.37) x 10^5* min^-1 M^-1”. Also, in data set [3] (other: Mutant U), the Km amounted to 580 ± 80 µM, the turnover number (kcat) is on record as 4003 ± 56^* min^-1 and the kcat/Km result was “(6.90 ± 0.70) x 10^6* min^-1 M^-1”.

B3: Escherichia coli acid phosphatase/phytase (appA), wild type r-AppA, SEQ. ID. No. 1, expressed in Pichia pastoris (Escherichia coli K-12) (protein)
chain: T1 sequence (P07102 20-432 C200N/D207N/S211N) with N181C, N188D, N192S
notes: as for B1
On to B3, for which, in data set [2] (other: r-AppA), the Km worked out at 3660 ± 440 µM, the turnover number (kcat) worked out at 752 ± 7.9 min⁻¹ and the kcat/Km entry was “(2.0 ± 0.18) x 10^5 min^-1 M^-1”. Besides, in data set [3] (other: r-AppA), the Michaelis-Menten constant (Km) was determined as 1950 ± 250 µM, the kcat came to 2148 ± 33 min⁻¹ and the kcat/Km entry is “(1.11 ± 0.13) x 10^6 min^-1 M^-1”.

B4: Escherichia coli acid phosphatase/phytase (appA) Mutant R (construct E2A1P3K2: A131N, V134N, D207N, S211N), expressed in Pichia pastoris (Escherichia coli … (protein)
chain: T1 sequence (P07102 20-432 C200N/D207N/S211N) with A112N, V115N, N181C
notes: as for B1
Take B4: in data set [2] (other: Mutant R), the Michaelis-Menten constant (Km) was 7870 ± 840 µM, the kcat is given as 390 ± 5.9^* min^-1 and the kcat/Km entry is reported as “(0.5 ± 0.07) x 10^5* min^-1 M^-1”. Further, in data set [3] (other: Mutant R), the Michaelis-Menten constant (Km) was 3070 ± 260 µM, the catalytic constant (kcat) is 1657 ± 23^* min^-1 and the kcat/Km result is “(0.54 ± 0.09) x 10^6* min^-1 M^-1”.
